Source: patent publication US20210163601A1 (Amgen, published 2021)

T1: Soluble ASGR-1 (recombinant, biotinylated) (human, UniProt P07306 62-291, limits assumed, biotinylated)
T1 construct: also called recombinant, soluble ASGR-1 biotinylated protein
T1 sequence: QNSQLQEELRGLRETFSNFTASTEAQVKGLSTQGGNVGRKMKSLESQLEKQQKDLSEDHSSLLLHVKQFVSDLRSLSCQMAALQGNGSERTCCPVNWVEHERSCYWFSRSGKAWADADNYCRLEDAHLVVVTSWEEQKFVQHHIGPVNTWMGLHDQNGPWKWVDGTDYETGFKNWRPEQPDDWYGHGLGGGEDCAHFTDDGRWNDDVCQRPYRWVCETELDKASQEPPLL


Target: T1, Soluble ASGR-1 (recombinant, …)
Experiment: limiting antigen bead FACS; biotinylated soluble ASGR-1 coated at 2.5 ng/mL on LumAvidin beads;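 also: hybridoma supernatants of ligand-competing antibodies bound to antigen-loaded beads, read by flow cytometry on an iQue Screener in calcium-containing buffer, higher fluorescence meaning stronger relative affinity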

| FACS Geomean | Binder |
| --- | --- |
| 2150 | 202A3 (antibody, V domains shown, Tested as hybridoma supernatant) VH: QVQLEQSGAEVKKPGASVKVSCKASGYTFTSYDINWVRQATGQGLEWLGWMNPKRGNTGYAQKFQGRVTMTRNTSISTAHMELSSLRSEDTAVYYCARGRYSREDYYYYYDMDVWGQGTTVTVSS VL: DIQMSQSPSSLSASVGDRVTITCRASQGIRNDLGWYQQKPGKAPKRLICAASRLQSGVPSRFSGSGSGTEFTLTISSLQPEDFAIYYCLQHHDYPFTFGPGTKVDIK |
| 1870 | 198D2 (antibody, V domains shown, Tested as hybridoma supernatant) VH: QVQLVESGGGVVQPGRSLRLSCAASGFTFRSYGMHWVRQAPGKGLEWVAVIIYDGSYKYYADSVKGRFTISRDNSKNTLYLQMNSLRAEDTAVYYCARTYSGGMDVWGQGTTVTVSS VL: QSVLTQPPSVSAAPGQKVTISCSGSSSNIGSNYVSWYQQLPGTAPKVLIYDNNKRPSGIPDRFSGSKSGTSATLGITGLQTGDEADYYCGTWDSRLNVGVFGGGTKLTVL |

The remaining lines, values behind:

| Binder | FACS Geomean |
| --- | --- |
| 194C10 (antibody, V domains shown, Tested as hybridoma supernatant) VH: QVQLQQWGAGLLKPSETLSLTCAVSGGSFRYYYWSWIRQPPGKGLEWFGEINHSGSTNYNPSLKSRVTISIDTSKNQFSLKLRSVTAADTAVYYCARDYGAFDIWGQGTMVTVSS VL: EIVLTQSPGTLSLSPGERATLSCRASPSVNSGYLAWYQQKPGQTPRLLIFGASSRATGIPDRFSASGSGADFTLTISRLEPEDFAVYFCQQYESSPWTFGQGTKVEIK | 21900 |
| 193E7 (antibody, V domains shown, Tested as hybridoma supernatant) VH: QVQLQQWGAGLLKPSETLSLTCAVYGGSFSGYFWTWIRQPPGKGLEWIGEINHSGSTNYNPSLKSRVTISVDTSKNQFSLKLSSVTAADTAVYYCARDYGADYWGQGTLVAVSA VL: DIQMTQSPSSLSASVGDRVTITCRASQGIRNDLGWYQQKPGKAPKRLIYSASSLQRGVPSRFSGSGSGTEFTLTISSLQPEDFATYYCLQHKRYPLTFGGGTKVEIK | 18300 |
| 7F4 (antibody, V domains shown, Tested as hybridoma supernatant) VH: QLQLQESGPGLVKPSETLSLTCTVSGGSISRSSYYWGWIRQPPGKGLEWIGNIYYSGATYYNPSLKSRVTISVDTSTNQFSLKLSSVTAADTAVYYCARHSGSWSLDYWGQGTLVTVSS VL: DIQMTQSPSSLSASVGDRVTITCRTSQGIRNDLGWYQQKPGKAPKRLIYAASNLQSGVPSRFSGSGSGTEFTLTISSLQPEDFATYYCLQHSAYPLTFGGGTKVEIK | 4910 |
| 176H4 (antibody, V domains shown, Tested as hybridoma supernatant) VH: QVQLVESGGGVVQPGRSLRLSCAASGFTFSSYGMHWVRQAPGKGLEWVAIIWYDGSYKYYADSVKGRFTISRDNSKNTLYLQMSSLRAEDTAVYYCARDAHDFWSGYFAYWGQGALVTVSS VL: DIVMTQTPLSLSVTPGQPASISCKSSQSLLHGDGKTYLYWYLQKPGQPPQLLIYEVSNRFSGVPDRFSGSGSGTDFTLKISRVEAEDVGIYYCMQSIQIPWTFGQGTRVEIK | 29400 |
| 12D2 (antibody, V domains shown, Tested as hybridoma supernatant) VH: EVQLVESGGGLVKPGGSLRLSCAASGFTFSSYSMNWVRQAPGKGLEWVSSISSSSSYIYYADSVKGRFTISRDNAKNSLYLQMNSLRAEDTAVYYCARLGDYWGQGTLVAVSS VL: not shown | 105 |
